Source: the supplement of paper PMC9876800

Test system: peptide library, one residue held at a place counted from the S/T acceptor
Assay: relative phosphorylation of the sub-library (ratio to the mean residue at this position); human; higher = residue favoured
Procedure, shortened: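 Relative sub-library phosphorylation is a ratio to the mean residue at the same position. Purified recombinant kinases were incubated under kinase-specific conditions with biotinylated degenerate peptide sub-libraries, each fixing one residue at one position around a central Ser/Thr, using 50 μM peptide and 50 μM ATP spiked with γ-32P-ATP for 90 min. Spots captured on streptavidin membranes were phosphorimaged and quantified by densitometry.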

Sequence of TSSK1B, construct: Full length (Q9BXA7 whole entry, looked up): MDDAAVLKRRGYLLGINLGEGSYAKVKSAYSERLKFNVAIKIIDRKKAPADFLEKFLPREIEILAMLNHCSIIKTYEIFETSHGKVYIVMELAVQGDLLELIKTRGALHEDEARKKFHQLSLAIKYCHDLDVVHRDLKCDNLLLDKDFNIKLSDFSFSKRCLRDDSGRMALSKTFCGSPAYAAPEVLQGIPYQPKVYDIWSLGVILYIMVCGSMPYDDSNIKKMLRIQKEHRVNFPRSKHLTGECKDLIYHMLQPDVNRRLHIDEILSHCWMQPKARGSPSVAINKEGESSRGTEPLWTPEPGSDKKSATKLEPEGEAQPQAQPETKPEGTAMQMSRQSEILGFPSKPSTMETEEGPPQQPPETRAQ
Sequence of TTK, construct: Full length (P33981 whole entry, looked up): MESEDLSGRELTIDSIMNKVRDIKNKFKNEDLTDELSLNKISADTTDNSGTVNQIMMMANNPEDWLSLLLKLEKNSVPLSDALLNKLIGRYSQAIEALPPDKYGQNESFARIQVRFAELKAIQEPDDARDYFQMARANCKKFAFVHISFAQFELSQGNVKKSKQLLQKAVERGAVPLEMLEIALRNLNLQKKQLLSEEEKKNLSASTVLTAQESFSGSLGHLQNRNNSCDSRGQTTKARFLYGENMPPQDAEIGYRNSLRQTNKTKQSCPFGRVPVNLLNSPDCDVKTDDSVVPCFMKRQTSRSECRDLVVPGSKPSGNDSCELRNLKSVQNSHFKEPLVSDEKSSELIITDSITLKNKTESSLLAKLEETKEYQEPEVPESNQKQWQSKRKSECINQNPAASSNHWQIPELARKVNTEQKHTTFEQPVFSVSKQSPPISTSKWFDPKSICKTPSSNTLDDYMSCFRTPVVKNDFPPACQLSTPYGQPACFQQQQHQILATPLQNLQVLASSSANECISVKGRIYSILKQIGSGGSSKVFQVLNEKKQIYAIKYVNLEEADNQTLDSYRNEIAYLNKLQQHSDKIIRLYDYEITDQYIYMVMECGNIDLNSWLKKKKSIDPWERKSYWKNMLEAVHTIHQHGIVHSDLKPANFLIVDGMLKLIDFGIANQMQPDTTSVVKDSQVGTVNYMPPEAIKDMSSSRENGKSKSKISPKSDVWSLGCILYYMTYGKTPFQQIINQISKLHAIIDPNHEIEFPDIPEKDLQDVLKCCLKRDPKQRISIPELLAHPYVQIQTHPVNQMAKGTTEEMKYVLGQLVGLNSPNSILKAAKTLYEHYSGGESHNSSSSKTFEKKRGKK
Sequence of TTBK1, construct: Full length (Q5TCY1 whole entry, looked up): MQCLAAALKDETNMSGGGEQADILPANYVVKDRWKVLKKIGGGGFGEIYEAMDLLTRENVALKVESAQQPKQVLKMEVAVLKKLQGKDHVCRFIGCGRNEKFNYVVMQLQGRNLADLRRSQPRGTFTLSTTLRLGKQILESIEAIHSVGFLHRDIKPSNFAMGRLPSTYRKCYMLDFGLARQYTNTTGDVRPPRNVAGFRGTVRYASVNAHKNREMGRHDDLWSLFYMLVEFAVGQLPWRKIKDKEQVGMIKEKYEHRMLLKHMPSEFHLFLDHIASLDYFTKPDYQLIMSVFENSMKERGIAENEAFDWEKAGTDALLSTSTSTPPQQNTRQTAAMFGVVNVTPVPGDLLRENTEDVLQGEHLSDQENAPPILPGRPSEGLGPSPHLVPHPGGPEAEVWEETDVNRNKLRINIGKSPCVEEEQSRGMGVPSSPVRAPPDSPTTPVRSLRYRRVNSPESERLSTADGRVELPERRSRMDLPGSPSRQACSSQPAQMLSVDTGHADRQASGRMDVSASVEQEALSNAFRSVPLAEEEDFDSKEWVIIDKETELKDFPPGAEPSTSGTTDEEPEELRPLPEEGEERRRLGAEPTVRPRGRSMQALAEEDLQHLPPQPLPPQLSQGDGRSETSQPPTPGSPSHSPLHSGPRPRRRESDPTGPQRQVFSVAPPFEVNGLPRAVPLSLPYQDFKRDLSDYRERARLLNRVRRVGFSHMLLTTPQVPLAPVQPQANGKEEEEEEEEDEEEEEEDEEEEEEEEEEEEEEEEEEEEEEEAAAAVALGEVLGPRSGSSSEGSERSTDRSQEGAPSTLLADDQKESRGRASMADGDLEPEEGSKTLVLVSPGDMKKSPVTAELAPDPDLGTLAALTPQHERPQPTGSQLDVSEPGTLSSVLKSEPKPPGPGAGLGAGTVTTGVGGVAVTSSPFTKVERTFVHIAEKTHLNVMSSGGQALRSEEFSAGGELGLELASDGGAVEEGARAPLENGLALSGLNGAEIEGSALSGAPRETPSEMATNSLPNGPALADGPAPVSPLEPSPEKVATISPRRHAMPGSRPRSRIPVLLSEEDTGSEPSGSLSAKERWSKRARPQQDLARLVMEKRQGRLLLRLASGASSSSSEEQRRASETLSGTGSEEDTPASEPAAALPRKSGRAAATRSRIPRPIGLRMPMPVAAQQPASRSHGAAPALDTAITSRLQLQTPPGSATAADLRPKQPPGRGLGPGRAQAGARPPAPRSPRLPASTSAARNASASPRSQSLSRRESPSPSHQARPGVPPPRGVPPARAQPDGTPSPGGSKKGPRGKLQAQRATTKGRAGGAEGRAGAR

TSSK1B, construct: Full length (from UniProt Q9BXA7)
relative phosphorylation
Conditions	at +1	at +2	at +3	at +4	at -1	at -2	at -3	at -4	at -5
A fixed	0.896	1.04	0.82	0.786	1.15	1.84	0.918	1.21	1.05
D fixed	0.619	0.465	1.55	0.621	0.453	0.495	0.378	0.625	0.389
E fixed	0.69	0.497	0.747	0.452	0.506	0.474	0.532	0.883	0.371
F fixed	1.1	0.97	1.09	1.33	0.617	0.565	0.497	0.643	0.99
G fixed	0.884	1.4	0.809	0.639	1.08	1.2	1.08	1.29	0.635
H fixed	1.1	1.99	1.29	0.768	0.957	0.981	1.01	1.23	0.57
I fixed	0.854	1.56	0.66	2.06	0.502	0.661	0.421	0.677	1.61
K fixed	1.43	0.385	0.945	0.621	2.08	2.53	2.55	2.11	0.612
L fixed	1.03	1.53	0.758	2.43	0.683	0.423	0.418	0.73	2.77
M fixed	1.23	1.21	0.953	1.9	0.885	0.681	0.607	1.12	1.14
N fixed	1.05	0.881	1.92	0.793	0.98	1.22	0.887	0.889	0.477
P fixed	0.176	0.61	0.392	0.702	1.96	0.794	1.3	0.592	1.26
Q fixed	1.38	0.997	1.07	0.683	1.17	1.29	0.858	0.864	0.783
R fixed	1.54	0.586	0.953	0.529	1.98	1.72	3.76	1.81	1.09
V fixed	0.935	1.07	0.632	1.34	0.59	1.11	0.545	0.797	1.76
W fixed	0.893	0.845	1.56	0.719	0.601	0.401	0.465	0.73	0.734
Y fixed	1.19	0.96	0.851	0.62	0.817	0.623	0.772	0.805	0.767
pThr fixed	0.709	0.515	0.365	0.424	0.191	0.303	0.574	0.596	0.457
pTyr fixed	0.793	0.437	0.381	0.396	0.445	0.326	0.424	0.432	0.65

TTBK1, construct: Full length (from UniProt Q5TCY1)
relative phosphorylation
Conditions	at +1	at +2	at +3	at +4	at -1	at -2	at -3	at -4	at -5
A fixed	0.474	1.63	0.964	0.817	0.663	0.79	0.94	0.821	0.856
D fixed	0.168	0.192	0.85	0.83	0.452	1.46	1.23	1.03	0.844
E fixed	0.626	0.168	1.35	0.735	0.391	1.14	0.832	0.75	0.582
F fixed	2.09	1.42	1.49	1.32	1.99	1.06	1.43	1.33	1.78
G fixed	0.183	0.441	0.998	0.874	0.355	0.662	0.918	0.815	0.877
H fixed	0.657	1.1	0.867	0.931	0.834	0.749	0.903	0.951	0.747
I fixed	2.66	1.23	1.54	0.714	1.67	1.02	1.56	1.24	1.19
K fixed	0.517	1.04	0.514	1.1	1.28	0.64	0.66	0.957	1.08
L fixed	1.76	0.965	1.15	0.965	1.7	2.09	1.24	1.07	0.95
M fixed	1.5	1.31	1.29	0.855	1.08	1.23	1.04	0.933	0.79
N fixed	0.221	0.394	0.472	0.8	0.562	0.773	0.666	0.683	0.626
P fixed	0.0712	0.231	0.421	1.23	0.589	1.04	0.649	0.687	0.7
Q fixed	0.749	0.493	0.595	0.928	0.675	0.849	0.801	0.674	0.773
R fixed	0.789	1.42	0.641	1.41	1.23	0.934	0.888	1.06	1.22
V fixed	1.84	1.18	1.35	0.728	1.4	1.04	1.02	1.22	1.17
W fixed	1.38	2.24	1.19	1.75	1.11	0.808	1.16	1.54	1.35
Y fixed	1.31	1.57	1.32	1.01	1.03	0.721	1.08	1.23	1.47
pThr fixed	0.403	0.521	0.836	1.01	0.51	2.02	1.57	1.28	1.03
pTyr fixed	1.48	12.4	1.22	0.697	0.613	2.31	2.58	1.76	1.35

TTK, construct: Full length (from UniProt P33981)
relative phosphorylation
Conditions	at +1	at +2	at +3	at +4	at -1	at -2	at -3	at -4	at -5
A fixed	0.968	0.742	0.497	0.739	0.798	0.532	0.845	0.952	0.97
D fixed	0.397	0.389	0.331	0.48	1.22	4.68	2.19	1.55	1.15
E fixed	0.883	0.339	0.26	0.39	0.866	2.91	1.94	1.47	0.983
F fixed	0.541	0.748	1.48	0.895	0.671	0.373	0.55	0.76	0.791
G fixed	1.18	0.501	0.552	1.15	0.568	0.922	1.32	1.24	1.26
H fixed	0.952	1.44	0.97	1.42	1.78	0.675	1.18	1.05	1.25
I fixed	1.29	0.784	1.89	0.746	0.696	0.294	0.419	0.51	0.604
K fixed	1.28	1.61	0.956	1.76	1.26	0.456	0.966	1.02	1.1
L fixed	1.02	0.802	2.26	0.738	0.849	0.336	0.537	0.694	0.757
M fixed	1.49	1.02	1.29	0.868	0.905	0.453	0.651	0.865	0.884
N fixed	0.685	1.29	0.723	1.28	1.47	1.82	1.29	1.22	1.1
P fixed	0.275	0.773	0.532	0.823	0.891	0.504	0.959	0.984	1.39
Q fixed	1.71	0.974	0.748	1.1	1.16	0.873	0.975	0.981	0.857
R fixed	1.51	1.91	1.01	1.64	1.15	0.854	1.29	1.16	1.09
V fixed	1.45	0.963	1.23	0.651	0.837	0.337	0.487	0.675	0.784
W fixed	0.704	1.75	1.29	1.21	0.766	0.529	0.66	0.964	0.984
Y fixed	0.659	0.971	0.984	1.12	1.12	0.453	0.734	0.899	1.04
pThr fixed	0.734	0.393	0.576	0.455	0.7	1.12	1.75	1.37	1.41
pTyr fixed	0.362	0.27	0.696	0.45	0.787	0.765	0.997	0.781	1.47
